According to patent US20130123201A1, “MODULATION OF CYTOKINE-INDUCED CHRONIC INFLAMMATORY RESPONSES” (UNIVERSITY OF MANITOBA, priority 2010, published 2013):

Target: TNF-receptor-1 (TNF-R1) (human) (UniProt P19438)
Assay: cell-based or functional assay

TNF-receptor-1 (TNF-R1) (human), sequence (P19438 30-455): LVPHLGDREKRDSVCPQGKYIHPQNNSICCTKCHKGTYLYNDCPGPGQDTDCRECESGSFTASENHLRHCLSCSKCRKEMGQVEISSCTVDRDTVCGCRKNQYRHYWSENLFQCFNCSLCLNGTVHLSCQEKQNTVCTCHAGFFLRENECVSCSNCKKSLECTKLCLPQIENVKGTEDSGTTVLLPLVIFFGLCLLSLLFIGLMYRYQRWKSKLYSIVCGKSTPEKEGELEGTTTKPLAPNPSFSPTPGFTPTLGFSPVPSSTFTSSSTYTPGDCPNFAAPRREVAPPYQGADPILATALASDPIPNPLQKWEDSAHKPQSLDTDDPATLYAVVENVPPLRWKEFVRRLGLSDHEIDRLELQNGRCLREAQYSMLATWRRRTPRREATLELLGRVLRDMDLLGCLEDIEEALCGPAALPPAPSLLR

Relative fold change in phosphorylation of the TNF-R1 S274 array peptide (kinome profiling, THP-1 cells, 20 ng/mL IL-32, 15 min): 4.7 fold
Substance: Recombinant human cytokine IL-32γ (from UniProt P24001 31-234) (ligand)
